Changes are numbered by the printed parent chain. Each block holds one molecule with its values, some of them ahead of it.
Experiments:
[1] = target: T1, human TrkA receptor on the cell surface (human, UniProt P04629 33-796); experiment: flow cytometry on TF-1 cells, control immunoglobulin
TrkA-IgG [2] = target: T2, TrkA-IgG (UniProt P04629 33-423, limits assumed); experiment: SPR (BIACORE 2000), TrkA-IgG immobilised on CM-5 chip, 'separated 1:1' fit
T2 construct: also called specific antigen TrkA-IgG; not shown: IgG part of the fusion
T2 sequence (P04629 33-423 limits assumed): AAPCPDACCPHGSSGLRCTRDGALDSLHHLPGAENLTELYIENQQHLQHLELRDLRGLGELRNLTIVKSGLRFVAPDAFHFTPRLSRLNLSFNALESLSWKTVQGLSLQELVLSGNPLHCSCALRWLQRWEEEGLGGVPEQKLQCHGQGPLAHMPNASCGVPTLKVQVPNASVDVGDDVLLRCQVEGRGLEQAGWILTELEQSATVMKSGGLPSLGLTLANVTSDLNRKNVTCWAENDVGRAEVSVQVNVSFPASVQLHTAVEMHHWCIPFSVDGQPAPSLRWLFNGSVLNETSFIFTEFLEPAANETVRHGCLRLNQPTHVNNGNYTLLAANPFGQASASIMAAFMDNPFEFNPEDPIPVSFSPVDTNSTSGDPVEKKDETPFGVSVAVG
Protocol: Surface plasmon resonance analysis was used to measure the association and dissociation rate constants for binding kinetics of the different antibodies (murine, chimeric, 5 humanised variants) towards TrkA-IgG using BIACORE 2000 (Biacore AB, Uppsala, Sweden). TrkA-IgG was immobilised on a CM-5 sensor chip according to manufacturer's conditions, in a way to achieve an immobilization density of 1100 RU. Each antibody sample was analyzed in antibody concentration ranges of 20-0.63 μg/ml. Calculations from the sensograms were performed by using the BIA evaluation version 3 (1999) software.
Analysis of the individual sets of sensograms was performed with the BIA evaluation version 3 (1999) software. Among the different models tested to fit the kinetics data, the best fitting was obtained with the “separated 1:1” algorithm. In this model, only a defined range of the early association and dissociation curves was used for the calculation.

[3] = target: T1, human TrkA receptor on the cell surface; experiment: cell-based or functional assay
[4] = target: T1, human TrkA receptor on the cell surface; experiment: flow cytometry on TF-1 cells, 4 µg/ml; parameters: Geo Mean Fluorescence: reference not given here
TrkA-IgG [5] = target: T2, TrkA-IgG; experiment: SPR (BIACORE 2000), TrkA-IgG immobilised on CM-5 chip, 'separated 1:1' fit; separate experiment

T1 sequence (P04629 33-796): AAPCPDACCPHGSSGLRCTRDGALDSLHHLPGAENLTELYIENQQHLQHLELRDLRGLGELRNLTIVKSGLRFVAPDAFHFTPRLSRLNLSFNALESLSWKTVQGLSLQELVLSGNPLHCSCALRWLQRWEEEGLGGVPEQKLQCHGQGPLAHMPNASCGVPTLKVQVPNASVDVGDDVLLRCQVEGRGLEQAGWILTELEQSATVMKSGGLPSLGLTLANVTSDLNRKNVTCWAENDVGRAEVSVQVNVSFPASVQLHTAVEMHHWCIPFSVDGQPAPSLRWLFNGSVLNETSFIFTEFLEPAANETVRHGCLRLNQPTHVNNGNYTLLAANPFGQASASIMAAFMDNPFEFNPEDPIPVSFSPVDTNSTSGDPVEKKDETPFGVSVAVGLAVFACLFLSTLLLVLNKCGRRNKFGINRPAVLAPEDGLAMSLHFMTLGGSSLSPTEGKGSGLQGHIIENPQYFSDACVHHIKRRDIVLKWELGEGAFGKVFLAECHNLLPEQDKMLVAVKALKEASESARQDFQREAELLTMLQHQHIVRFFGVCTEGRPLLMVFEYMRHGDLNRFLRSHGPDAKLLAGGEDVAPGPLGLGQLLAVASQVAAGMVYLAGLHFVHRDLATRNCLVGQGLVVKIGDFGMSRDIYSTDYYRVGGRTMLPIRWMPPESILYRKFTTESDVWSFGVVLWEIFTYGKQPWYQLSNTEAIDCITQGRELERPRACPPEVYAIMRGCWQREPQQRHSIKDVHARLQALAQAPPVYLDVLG

- Fold Increase [1]: 1 fold
- Geo Mean Fluorescence [1]: 3.5
Molecule: Human IgG1 standard control (antibody)

- Kd (TrkA-IgG [2]): 0.662 nM
- koff (TrkA-IgG [2]): 0.000638 s⁻¹
- kon (TrkA-IgG [2]): 1e+06 M⁻¹ s⁻¹
- Proliferation assay on TF1 cells IC50 (µg/ml), EXP-1 [3]: 1.4 µg/mL
- Proliferation assay on TF1 cells IC50 (µg/ml), EXP-2 [3]: 1.21 µg/mL
- Fold Increase [4]: 3.9 fold
- Geo Mean Fluorescence [4]: 13.7
B1: BXhVH5VL3 (antibody, human IgG1, V domains shown)
VH: EVKLLESGGGLVQPGGSLRLSCAASGFTFSTYTMSWVRQTPGKRLEWVAYISKGGGSTYYPDTVKGRFTISRDNSKNTLYLQMNSLRAEDTAVYYCARGAMYGNDFFYPMDYWGQGTTVTVSS
VL: QIVLTQSPATLSLSPGERATLSCSASSSVSYMHWYQQKPGQSPRLLIYTTSNLASGIPSRFSGSGSGTFYTLTISSLEPEDFAVYYCHQWSSYPWTFGGGTKLEIK
notes: Human IgG1 constant regions (IgG1 expression vectors); also called hVH5/hVL3

- Kd (TrkA-IgG [5]): 41.8 nM
- koff (TrkA-IgG [5]): 0.0309 s⁻¹
- kon (TrkA-IgG [5]): 739000 M⁻¹ s⁻¹
B2: HuMNACWO (antibody, V domains shown)
VH: B1 VH with K3Q, V37A, T40A, R44G, T91S, Y102F, Y108F, Y112R, T118L
VL: DIVLTQSPSSLSASVGDRVTITCSASSSVSYMHWYQQKPGQAPKLLIYTTSNLASGVPSRFSGSGSGTDYTLTISSLQPEDVATYYCHQWSSYPWTFGGGTKVEIK
notes: Prior art humanised antibody; also called humanised antibody MNAC13 disclosed in WO 05/061540; HuVHWO/HuVLWO

Source: US20110145941A1 (LAY LINE GENOMICS S P A, published 2011)
